In paper PMC8144298:

Biological target: CsrA-3xFLAG (Escherichia coli) (UniProt P69913)
Test: competition
Details: competitor conc. that fully displaces labeled RrBshort (120 pM) from 200 nM CsrA; CsrA EMSA: 100 mM KCl, 10 mM MgCl2, 2 mM DTT, 7.5% glycerol, 2 ng total yeast RNA, 120 pM RNA, 10 min 37 C, 8% native PAGE in 1x TBE (pH not stated); Hfq EMSA: …

Sequence of CsrA-3xFLAG (Escherichia coli) (P69913 whole entry): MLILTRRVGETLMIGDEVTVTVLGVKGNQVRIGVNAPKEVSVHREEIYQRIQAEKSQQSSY

CsrB
binding signal: 3.13 nM
